Assays:
[1] = biological target: DnaK, wild type, with a C-terminal hexahistidine tag (E. coli, UniProt P0A6Y8 1-638); experiment: SPR
DnaK V389A = DnaK V389A (E. coli, UniProt P0A6Y8 1-638, V389A); experiment: SPR

binding result [1]: binds
binding result (DnaK V389A): binds
B1: DnaJ with the biotin carboxyl carrier protein (BCCP) fused at the C-terminus (natural protein, E. coli, UniProt P08622 1-376, looked up)
chain: MAKQDYYEILGVSKTAEEREIRKAYKRLAMKYHPDRNQGDKEAEAKFKEIKEAYEVLTDSQKRAAYDQYGHAAFEQGGMGGGGFGGGADFSDIFGDVFGDIFGGGRGRQRAARGADLRYNMELTLEEAVRGVTKEIRIPTLEECDVCHGSGAKPGTQPQTCPTCHGSGQVQMRQGFFAVQQTCPHCQGRGTLIKDPCNKCHGHGRVERSKTLSVKIPAGVDTGDRIRLAGEGEAGEHGAPAGDLYVQVQVKQHPIFEREGNNLYCEVPINFAMAALGGEIEVPTLDGRVKLKVPGETQTGKLFRMRGKGVKSVRGGAQGDLLCRVVVETPVGLNERQKQLLQELQESFGGPTGEHNSPRSKSFFDGVKKFFDDLTR
